Experimental data from paper PMC12661447, “Cyanophycinase is required for heterotrophy in cyanobacteria” (The Journal of Biological Chemistry, 2025).

Target: T1, cyanophycinase (CphB) (Synechocystis sp. PCC 6803 (endogenous …, UniProt P73832 1-271))
T1 sequence (looked up): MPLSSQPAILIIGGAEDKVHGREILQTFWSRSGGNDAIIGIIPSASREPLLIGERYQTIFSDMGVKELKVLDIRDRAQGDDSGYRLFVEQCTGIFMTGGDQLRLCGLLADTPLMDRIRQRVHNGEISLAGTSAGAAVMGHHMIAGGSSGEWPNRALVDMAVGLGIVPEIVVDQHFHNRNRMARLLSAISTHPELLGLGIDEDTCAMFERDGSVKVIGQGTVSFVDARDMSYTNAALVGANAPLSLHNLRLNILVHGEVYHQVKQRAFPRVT
Experiment: cell-based or functional assay

B1: FLAG-tagged variant of ArgD (acetylornithine aminotransferase) (enzyme, Synechocystis sp. PCC 6803, UniProt P73133 1-429, looked up)
chain: MTYSPVVESVEAQAFAVTDLSPAAEFKTADFDTYVMNTYGRFPIAIARGQGSTLWDTEGKSYLDFVAGIATCTLGHAHPALVRAVSDQIQKLHHVSNLYYIPEQGELAKWIVEHSCADRVFFCNSGAEANEAAIKLVRKYAHTVLDFLEQPVILTAKASFHGRTLATITATGQPKYQQYFDPLVPGFDYVPYNDIRSLENKVADLDEGNSRVAAIFLEPLQGEGGVRPGDLAYFKRVREICDQNDILLVFDEVQVGVGRTGKLWGYEHLGVEPDIFTSAKGLAGGVPIGAMMCKKFCDVFEPGNHASTFGGNPLACAAGLAVLKTIEGDRLLDNVQARGEQLRSGLAEIKNQYPTLFTEVRGWGLINGLEISAESSLTSVEIVKAAMEQGLLLAPAGPKVLRFVPPLVVTEAEIAQAVEILRQAIATLV
in vitro activity of recombinant CphB-His (2 μM; degradation of cyanophycin, β-Asp-Arg dipeptide at 2 min by LC-HRMS) with recombinant ArgD-His added in a 1:1 ratio against without ArgD (BSA control): ~2 fold
